Earlier results as cited in article PMC8175380.

What was measured:
EED (Homo sapiens) = EED (Homo sapiens) (UniProt O75530); assay: ITC
MDM2 (Homo sapiens) = MDM2 (Homo sapiens) (UniProt Q00987); assay: SPR
Chain of MDM2 (Homo sapiens) (Q00987 whole entry): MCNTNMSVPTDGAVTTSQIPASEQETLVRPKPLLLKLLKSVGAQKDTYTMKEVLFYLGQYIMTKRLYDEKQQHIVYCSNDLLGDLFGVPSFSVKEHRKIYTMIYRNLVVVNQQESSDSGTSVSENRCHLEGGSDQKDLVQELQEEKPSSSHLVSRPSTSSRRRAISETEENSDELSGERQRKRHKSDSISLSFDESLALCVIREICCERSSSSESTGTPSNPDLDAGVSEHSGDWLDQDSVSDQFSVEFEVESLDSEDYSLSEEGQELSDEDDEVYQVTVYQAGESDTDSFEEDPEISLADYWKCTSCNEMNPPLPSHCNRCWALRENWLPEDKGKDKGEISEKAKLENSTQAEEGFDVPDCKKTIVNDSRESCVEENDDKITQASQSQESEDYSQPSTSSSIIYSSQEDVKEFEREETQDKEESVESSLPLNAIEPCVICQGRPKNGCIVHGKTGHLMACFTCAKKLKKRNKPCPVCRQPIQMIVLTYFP

Chain of EZH2 peptide aptamer (Q15910 whole entry): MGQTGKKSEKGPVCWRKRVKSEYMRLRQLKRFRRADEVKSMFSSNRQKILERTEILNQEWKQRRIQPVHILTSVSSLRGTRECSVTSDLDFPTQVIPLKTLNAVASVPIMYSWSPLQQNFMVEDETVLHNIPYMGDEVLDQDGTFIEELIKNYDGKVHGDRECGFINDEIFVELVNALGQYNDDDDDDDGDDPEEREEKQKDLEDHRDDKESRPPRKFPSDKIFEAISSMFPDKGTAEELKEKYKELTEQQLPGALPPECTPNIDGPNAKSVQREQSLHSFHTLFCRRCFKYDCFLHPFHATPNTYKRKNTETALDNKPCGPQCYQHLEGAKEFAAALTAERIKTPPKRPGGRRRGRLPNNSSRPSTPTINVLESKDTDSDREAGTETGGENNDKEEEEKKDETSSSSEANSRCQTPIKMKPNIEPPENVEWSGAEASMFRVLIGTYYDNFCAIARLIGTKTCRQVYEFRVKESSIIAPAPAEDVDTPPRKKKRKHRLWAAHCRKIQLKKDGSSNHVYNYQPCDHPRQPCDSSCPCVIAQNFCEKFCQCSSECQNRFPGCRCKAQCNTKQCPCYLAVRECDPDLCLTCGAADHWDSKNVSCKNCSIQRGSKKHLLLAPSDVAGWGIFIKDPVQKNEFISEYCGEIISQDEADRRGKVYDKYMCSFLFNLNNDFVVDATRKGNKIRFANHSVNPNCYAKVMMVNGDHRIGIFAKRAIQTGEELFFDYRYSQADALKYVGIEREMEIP
Chain of EED (Homo sapiens) (O75530 2-441): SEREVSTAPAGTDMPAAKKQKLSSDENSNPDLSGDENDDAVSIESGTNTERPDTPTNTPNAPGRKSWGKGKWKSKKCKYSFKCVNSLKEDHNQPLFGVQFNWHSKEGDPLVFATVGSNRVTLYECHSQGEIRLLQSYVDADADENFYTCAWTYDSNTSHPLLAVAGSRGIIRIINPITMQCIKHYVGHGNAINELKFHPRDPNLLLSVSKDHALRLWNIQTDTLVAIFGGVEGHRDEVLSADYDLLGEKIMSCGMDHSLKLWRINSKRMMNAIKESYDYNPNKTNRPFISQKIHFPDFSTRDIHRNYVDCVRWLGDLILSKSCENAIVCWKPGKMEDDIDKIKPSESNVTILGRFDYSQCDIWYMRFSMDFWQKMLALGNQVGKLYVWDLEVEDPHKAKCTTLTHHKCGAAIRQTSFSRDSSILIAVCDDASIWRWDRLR

Substance	Kd (EED (Homo sapiens)) [nM]	Kd (MDM2 (Homo sapiens)) [nM]
EZH2 peptide aptamer (from UniProt Q15910)	380	–
p53 peptide aptamer (from UniProt P04637)	–	140
